Data reported in patent publication US10613105 (FRAUNHOFER GESELLSCHAFT ZUR FORDERUNG DER ANGEWANDTEN …, dated 2020).

Molecular target: TLR4 receptor complex expressed in the NIH 3T3 pNifty SEAP TLR4/CD14 reporter cell line
Assay: cell-based or functional assay

Sequence of TLR4 receptor complex expressed in the NIH 3T3 pNifty SEAP TLR4/CD14 reporter cell line (O00206 24-839, chain 1 of 2): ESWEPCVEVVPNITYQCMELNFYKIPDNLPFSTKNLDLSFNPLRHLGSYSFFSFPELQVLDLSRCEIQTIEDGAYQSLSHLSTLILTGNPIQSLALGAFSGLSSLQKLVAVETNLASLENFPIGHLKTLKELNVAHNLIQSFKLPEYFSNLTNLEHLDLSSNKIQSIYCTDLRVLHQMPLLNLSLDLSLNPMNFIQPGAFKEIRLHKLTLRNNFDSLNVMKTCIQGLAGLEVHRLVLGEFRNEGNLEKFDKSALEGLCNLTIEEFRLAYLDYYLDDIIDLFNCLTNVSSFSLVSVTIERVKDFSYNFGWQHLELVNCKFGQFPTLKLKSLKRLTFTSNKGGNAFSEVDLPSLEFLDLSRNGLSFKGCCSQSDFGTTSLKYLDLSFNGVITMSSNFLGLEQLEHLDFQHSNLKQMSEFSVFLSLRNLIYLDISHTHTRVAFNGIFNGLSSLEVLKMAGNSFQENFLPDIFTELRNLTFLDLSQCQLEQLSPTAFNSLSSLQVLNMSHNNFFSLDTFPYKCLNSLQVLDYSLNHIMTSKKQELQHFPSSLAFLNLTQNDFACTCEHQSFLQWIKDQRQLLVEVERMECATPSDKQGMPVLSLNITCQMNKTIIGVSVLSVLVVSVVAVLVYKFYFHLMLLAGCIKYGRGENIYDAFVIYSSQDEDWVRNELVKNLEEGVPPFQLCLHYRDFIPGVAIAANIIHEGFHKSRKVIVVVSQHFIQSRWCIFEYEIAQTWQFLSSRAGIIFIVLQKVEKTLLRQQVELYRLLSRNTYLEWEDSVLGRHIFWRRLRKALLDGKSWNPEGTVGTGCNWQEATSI
Sequence of TLR4 receptor complex expressed in the NIH 3T3 pNifty SEAP TLR4/CD14 reporter cell line (P08571 20-345, chain 2 of 2, further chain): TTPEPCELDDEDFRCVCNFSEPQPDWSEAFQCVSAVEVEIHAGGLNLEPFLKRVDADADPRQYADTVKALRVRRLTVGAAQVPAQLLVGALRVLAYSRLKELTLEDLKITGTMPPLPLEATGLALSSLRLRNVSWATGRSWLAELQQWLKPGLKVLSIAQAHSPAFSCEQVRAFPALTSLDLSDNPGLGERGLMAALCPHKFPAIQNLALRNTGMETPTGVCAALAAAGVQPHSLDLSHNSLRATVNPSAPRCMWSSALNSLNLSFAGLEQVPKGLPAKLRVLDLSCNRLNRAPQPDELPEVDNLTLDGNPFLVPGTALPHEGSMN

B1: GLLHIFYIPRRDLKQLYFNL peptide (SEQ ID NO: 3) (peptide)
peptide: GLLHIFYIPRRDLKQLYFNL
IC50 in the PAMP assay (SEAP reporter, NIH 3T3 pNifty SEAP TLR4/CD14 cells): > 200 mM

B2: KGETVNTTISFSFKGIKFSK peptide (SEQ ID NO: 1) (peptide)
peptide: KGETVNTTISFSFKGIKFSK
IC50 in the PAMP assay (SEAP reporter, NIH 3T3 pNifty SEAP TLR4/CD14 cells): > 200 mM

B3: KMQYPISINVNPCIELKGSK peptide (SEQ ID NO: 2) (peptide)
peptide: KMQYPISINVNPCIELKGSK
IC50 in the PAMP assay (SEAP reporter, NIH 3T3 pNifty SEAP TLR4/CD14 cells): > 200 mM

B4: KRKEVICRGSDDDYSFCRAL peptide (SEQ ID NO: 4) (peptide)
peptide: KRKEVICRGSDDDYSFCRAL
IC50 in the PAMP assay (SEAP reporter, NIH 3T3 pNifty SEAP TLR4/CD14 cells): > 200 mM
